Results as given in the supplement of paper PMC9170038.

Test system: MS2 coat protein
Assay: apparent KD of MS2 coat protein; designed switch direction (-1 OFF switch, 1 ON switch): 1; higher = weaker reporter binding
Outline: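 Each step of the titration lasted 0.8–1.5 h at the lowest concentration and 10–20 min at the highest. The protein, SNAP-549-labelled MS2 coat protein, went from 0.7 or 1.5 nM doubling to 3 µM over RNA switches transcribed on Illumina chips by stalled E. coli RNA polymerase. Normalised cluster fluorescence was curve-fitted, and the per-design median over clusters is given as apparent KD.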

[1] = input ligand: microRNA oligo, concentration not stated
[2] = Eterna round: R95, input ligand: FMN 200 uM
[3] = Eterna round: R95, input ligand: microRNA oligo, concentration not stated
[4] = Eterna round: R95, input ligand: none

Row | Sequence | apparent KD of MS2 coat protein (input ligand: FMN 200 uM) [nM] | apparent KD of MS2 coat protein [1] [nM] | apparent KD of MS2 coat protein (input ligand: none) [nM] | apparent KD of MS2 coat protein [2] [nM] | apparent KD of MS2 coat protein [3] [nM] | apparent KD of MS2 coat protein [4] [nM]
1 | GUGCUCGUGUGAGGAUAUGCUUCCGGGUCGGCUGCAGAAGGUACUAUUAUACAUGAGGAUCACCCAUGUCGCUUUUCUCCGGUG [salish99_SSNG1_r04_917] (Eterna round: R96, puzzle: Same State NG 1) | 48.2 | 29.2 | 38.4 | – | – | –
2 | GUGGAGGAUUAAGGAUAUUGAAUACAUAUGUUUAACAUGAGGAUCACCCAUGUGGGUUGCGGUAUCGAGAAGGUAAAUUACUGG [salish99_SSNG2_r04_034] (Eterna round: R96, puzzle: Same State NG 2) | 146 | 63.2 | 117 | – | – | –
3 | GUGGCACAUGAGGAUCACCCAUGUGGGUAGAACAUAGGAUAUCACCAACAAAAUACCCGGUGAGAAGGAUGAUGCC [Esanesdi] (puzzle: Same State 1) | – | – | – | 118 | 121 | 161
4 | GUGGUCAGACAUGAGGAUCACCCAUGUGGAAUAAAUAACACACAGGAUAUCGAAUAUAAAAUAUACGAGAAGGGUGGAUUGGUG (Eterna round: R96, puzzle: Same State NG 3) | – | 334 | – | – | – | –
5 | GUGGUCAGACAUGAGGAUCACCCAUGUGGAAUAAAUAACACACAGGAUAUGUAAUAUAAAAUAUAACAGAAGGGUGGAUUGGUG (Eterna round: R96, puzzle: Same State NG 3) | – | 213 | – | – | – | –
6 | GUGGUCAGACAUGAGGAUCACCCAUGUGGAAUAAAUAACAGACAGGAUAUUUAAUAUAGGAUAUAAAAGAAGGGUCGAUUGGUG (Eterna round: R96, puzzle: Same State NG 3) | 110 | 98.9 | 116 | – | – | –
7 | GUGGUCAGACAUGAGGAUCACCCAUGUGGAAUAAAUAACGUACAGGAUAUUGAAUAUAGGAUAUACAAGAAGGGUAGAUUGGUG (Eterna round: R96, puzzle: Same State NG 3) | 167 | 115 | 127 | – | – | –
8 | GUGGUCAGACAUGAGGAUCACCCAUGUGGAAUAAAUAAGGACUAGGAUAUGUAAUAUAGGAUAUAACAGAAGGAGUGGUUGGUG (Eterna round: R96, puzzle: Same State NG 3) | 66.8 | 42.1 | 60.2 | – | – | –
9 | GUGGUCAGACAUGAGGAUCACCCAUGUGGAAUAAAUAAGGAGAAGGAUAUGCAAUAUAGGAUAUAGCAGAAGGUUUGGUUGGUG (Eterna round: R96, puzzle: Same State NG 3) | – | 69.6 | – | – | – | –
10 | GUGGUGGGUUGAGGAUAUUGGUUGCAUAUGUUUAACAUGAGGAUCACCCAUGUGGGUUGCGGUUUCGAGAAGGUAGGUUGCUGG [salish99_SSNG2_r04_045bad] (Eterna round: R96, puzzle: Same State NG 2) | 112 | 106 | 112 | – | – | –
11 | GUUAAGAACUAAGGAUAUUGAAUACAUAUGUUUAACAUGAGGAUCACCCAUGUGGGUUGCGGUAUCGAGAAGGUAGAAUAAUAG [Mat - same State NG 2 - JL mod - D93] (Eterna round: R96, puzzle: Same State NG 2) | – | 89.8 | – | – | – | –
12 | GUUACAUGAGGAUCACCCAUGUAUGUGUGGGAGUAAGUGUCUUAGGAUAUCUAUCAUUUAAUGUAAGAGAAGGAAGAUUGUUGU [JMF's solution 97] (Eterna round: R96, puzzle: Same State NG 3) | 122 | 106 | 118 | – | – | –
13 | GUUACAUGAGGAUCACCCAUGUAUGUGUGGGAGUAAGUGUCUUAGGAUAUCUAUCAUUUAAUUAAAGAGAAGGAAGAUUGUUGU [JMF's solution 98] (Eterna round: R96, puzzle: Same State NG 3) | 86.9 | 87.3 | 113 | – | – | –
14 | GUUACAUGAGGAUCACCCAUGUAUGUGUGGGAGUAAGUGUCUUAGGAUAUCUAUUAUAUAAAUUAAGAGAAGGAAGAUUGUUGU [JMF's solution 16] (Eterna round: R96, puzzle: Same State NG 3) | 126 | 87.9 | 124 | – | – | –
15 | GUUACAUGAGGAUCACCCAUGUAUGUGUGGGAGUAAGUGUCUUAGGAUAUCUAUUAUGUAAAUUAAGAGAAGGAAGAUUGUUGU [JMF's solution 17] (Eterna round: R96, puzzle: Same State NG 3) | 160 | 222 | 262 | – | – | –
16 | GUUACAUGAGGAUCACCCAUGUAUGUGUGGGAGUAAGUGUCUUAGGAUAUCUAUUAUUUAAGUUAAGAGAAGGAAGAUUGUUGU [JMF's solution 23] (Eterna round: R96, puzzle: Same State NG 3) | 121 | 94.7 | 114 | – | – | –
17 | GUUACAUGAGGAUCACCCAUGUAUGUGUGGGAGUAAGUGUCUUAGGAUAUCUGGUAUUUAAUUUAAGAGAAGGAAGAUUGUUGU [JMF's solution 30] (Eterna round: R96, puzzle: Same State NG 3) | 91.9 | 63.7 | 77.3 | – | – | –
18 | GUUAGGAAUCUAGCAAACAUGAGGAUCACCCAUGUAAGUGGGAAGGAUAUGGUACAGAAACUGUACCAGAAGGUCUUAUUGUUU [Omei SS(NG) 3 AV8] (Eterna round: R96, puzzle: Same State NG 3) | 602 | 17.5 | 280 | – | – | –
19 | GUUAGGAAUCUAGCAGACAUGAGGAUCACCCAUGUUAGUGGGAAGGAUAUGGUACAGAAACUGUACCAGAAGGUCUUAUUGUUU [Omei SS(NG) 3 AV13] (Eterna round: R96, puzzle: Same State NG 3) | 348 | 398 | 690 | – | – | –
20 | GUUAGGAAUCUAGCAUACAUGAGGAUCACCCAUGUAAGUGGGAAGGAUAUGGUACAGAAACUGUACCAGAAGGUCUUAUUAAUU [Omei SS(NG) 3 A] (Eterna round: R96, puzzle: Same State NG 3) | 65.3 | 80.4 | 63.1 | – | – | –
21 | GUUAUACAUGAGGAUCACCCAUGUCAAUGUAGUCGAGGAUAUGGGCAGCUGUGAGGCGUACUAGAAGGCGAAGAGG [JL-ss1-3.10 ViennaUCT mod] (puzzle: Same State 1) | – | – | – | 86.1 | 198 | 170
